In the DeepSol protein solubility set:

Experiment: soluble on expression in E. coli; label from the status in PepcDB or PDB records

| Sequence | soluble on expression in E. coli |
| --- | --- |
| MTCVGDIMLAGSATPTLSRSGYDYPFAKTAQELRRGDIAMGNLEAPLTERGTEYRDKTYRFRTNPIAAAALKRAGFSVLTLANNHMMDYGNEGLQDTLATLSRHGIAHTGAGASLAEARREAVVSVRGKRIAFLAYSLTFPSEFYAGPNRPGTAPGYAPHVREDIRRAKAEADYVVVSFHWGAERAEFPKQYQTETARLAIDAGADAIIGHHPHVLQGIEFYRGKPILYSLGNFAFGSRSTAADRSVMARLTLSDEETSVELVPLNVLHRETRYQPGILAGRKGAEVIERLNRLSQPFGTVISGSAGRFRARTSGADQRIATRLEHHHHHH | not soluble |
| MSPVHWPIHPKEYKWTVKPSPGPHAIENSLPLMIIVRDILKVADNAREARKIINSGEVLVDGRPRKNYKFPVGFMDVVSIPRTGDVYRVLPDERGRLVLHPIDEENAGFKLCKIVNKTTIKGGRTQLNLHDGRNYLSDDEFRVGDVVKLSIPEQEILERIPFEKDSLGLVTGGRHTGEIGKIKKINITRSSMPNTAVIETGAGKTFLTLKDYVFVIGKDESVISLPGGKLEHHHHHH | not soluble |
| MKDPRIEKLAYNLINYSIRLQKGEKVLIENFGLQKELVTALVKEAYAAGGFPFVSLKDHQVDRSLLMGATEEHFEQIAAYEASVMKDMDAYIGLRSGDNINEQADVPSERMKVHGQTVGKKVHRDIRVPKTRWVVLRYPNASMAQLAKMSTEAFEDFYFEVCNLDYGKMDKAMDSLVTLMNKTDKVRLTGPGTDLTFSIKDIPAIKCSGHLNIPDGEVYSAPVRDSVNGTVSYNTPSPYNGYTFENVQLKFENGQIVEATANDSERINKIFDTDEGARYVGEFAIGVNPYILHPMGDILFDEKIDGSFHFTPGQAYDDAWNGNNSNIHWDLVCIQRPEYGGGEIYFDDVLIRKDGRFVVPELEALNPENLK | not soluble |
| MNYFFCADESRQVNEDPIGSGCRRQCYVLIECPPPWMANEFDSKAVPANLRSLENEFYAVEPDGILLFIYSEELRQNYLTRILIFRPMMGYSGGYIKQEIHVSSLEDVAIVLKDWLAGKDIADTDINPHTRDILVCTHGTHDKCCAKYGIPFYRQAKNIVADLAVESVRIWQSSHFSGHRFAPTILDLPQGRYYGKLDCQSFTNILTYTGDINCLKSIYRGWGILPFPAQVMEGELIFLHGWQWFNYKVSCCFIEQSEDECFNRIEISAILPDGDIKTYQADVVEDESKSIYLIGDCHGIEPELIPKYSVNNLIQII | not soluble |
| MLTLLMCGGKGTRLGRGEKPLFEVCGMKLIDHSLLQYKDFDVIAITSPHTPATESYLAEKGVEVYRAAGKGYIEDYSEACRELAINEPVIVASADIVYIRDIAFDIVDAYMKTIKPALTVVMEGEPVGVNIIDSLLINTWQEEEIYSIEKDSVVNVNTVADVERAERLWTTMRKERGWQRDLEHHHHHH | soluble |
| AGFQLNEFSSSGLGRAYSGEGAIADDAGNVSRAPALITMFDRPTFSAGAVYIDPDVNISGTSPSGRSLKADNIAPTAWVPNMHFVAPINDQFGWGASITSNYGLATEFNDTYAGGSVGGTTDLETMNLNLSGAYRLNNAWSFGLGFNAVYARAKIERFAGDLGQLVAGQIMQSPAGQTQQGQALAATANGIDSNTKTAHLNGNQWGFGWNAGILYELDKNNRYALTYRSEVKIDFKGNYSSDLNRAFNNYGLPIPTATGGATQSGYLTLNLPEMWEVSGYNRVDPQWAIHYSLAYTSWSQFQQLKATSTSGDTLFQKHEGFKDAYRIALGTTYYYDDNWTFRTGIAFDDSPVPAQNRSISIPDQDRFWLSAGTTYAFNKDASVDVGVSYMHGQSVKINEGPYQFESEGKAWLFGTNFNYAFHHHHHH | soluble |
| MLFLPILILNLLIITHAIDIIPREVLFQDPKYSSVSLSPDAKQVGYVAPDENGIRNVFTRCSSCSYSRQVTFETEHPILNYVWTAIPDVILFTQDNHGDENTRIYKKNISATAIAADKTQRVVISEKPMVKAMILSNNLISETVLIGMNDENPALHNIYAFNCQTDELKLVLQNRRFSIFFFDNDLNVRLASEEGPDGEMIYYRPRSNEGARTTEQNTWVEYLRIQHDDKAITMPITFDKSNNFMYWIMGDGSDLGNLVVFPFEDPQQKEILYTAQRAQIGNVLIHPTDKTLLAVTEVYHKPELFVANETFMEDLQYLVNMKPSGSMNIVSMSIDMSTWLVTYSSSDEPYDIYLYRRWNKKAELFMSTRPELKKYTLNKQIGFDFRARDEMTIQAYLSLPPQAPLLKSSQVPDGDRPYANLGMIPAVPQKMIVLVHGGPKARDHYGFSPMNAWLTNRGYSVLQVNFRGSTGFGKRLTNAGNGEWGRKMHFDILDAVEFAVSKGIANRSEVAVMGGSYGGYETLVALTFTPQTFACGVDIVGPSNLISLVQAIPPYWLGFRKDLIKMVGADISDEEGRQSLQSRSPLFFADRVTKPIMIIQGANDPRVKQAESDQFVAALEKKHIPVTYLLYPDEGHGVRKPQNSMEQHGHIETFLQQCLGGETQPFQPGQYNSSAIIKKIGIEGAAIARQNLQIAQNQFAQQLPRGPVAPSIFYRPPVRAQRVMLAPNQNVMNRIFPVQG | soluble |
| GSATASDSTRRVSVRDKLLVKEVAELEANLPCTCKVHFPDPNKLHCFQLTVTPDEGYYQGGKFQFETEVPDAYNMVPPKVKCLTKIWHPNITETGEICLSLLREHSIDGTGWAPTRTLKDVVWGLNSLFTDLLNFDDPLNIEAAEHHLRDKEDFRNKVDDYIKRYAR | soluble |
| MMTTIVMESTTEKVCEASSDACPKLETMFDATPQIVEIDGCQDITCPGNAVPYLVATFPASEIEPFYPMDVVNPFNVIPPSTISGSVIDYYGKICDGGVWKFTKYPDGIHVNDSDTIMGEDGSLTGKKSTLLVVTWYGFC | not soluble |
| MKSLEEILQYNEKFVEEKKYEEFVAGKFPNKKMVIISCMDTRLVELLPKAMNMRNGDVKIIKVAGAVISHPFGSIMRSILVAVYELGADEVCVVGHHDCGMAKIQASSTIEKMKERGITEEKLDMLRYSGIDLEQFLRGFSSVEESVEHSVSVLRNHPLLPEEVPVHGLVIDPDTGKLDLVVNGYDN | not soluble |
| AVEPKEDTITVTAAPAPQESAWGPAATIAARQSATGTKTDTPIQKVPQSISVVTAEEMALHQPKSVKEALSYTPGVSVGTRGASNTYDHLIIRGFAAEGQSQNNYLNGLKLQGNFYNDAVIDPYMLERAEIMRGPVSVLYGKSSPGGLLNMVSKRPTTEPLKEVQFKAGTDSLFQTGFDFSDSLDDDGVYSYRLTGLARSANAQQKGSEEQRYAIAPAFTWRPDDKTNFTFLSYFQNEPETGYYGWLPKEGTVEPLPNGKRLPTDFNEGAKNNTYSRNEKMVGYSFDHEFNDTFTVRQNLRFAENKTSQNSVYGYGVCSDPANAYSKQCAALAPADKGHYLARKYVVDDEKLQNFSVDTQLQSKFATGDIDHTLLTGVDFMRMRNDINAWFGYDDSVPLLNLYNPSSHHHHHHGSSVNTDFDFNAKDPANSGPYRILNKQKQTGVYVQDQAQWDKVLVTLGGRYDWADQESLNRVAGTTDKRDDKQFTWRGGVNYLFDNGVTPYFSYSESFEPSSQVGKDGNIFAPSKGKQYEVGVKYVPEDRPIVVTGAVYNLTKTNNLMADPEGSFFSVEGGEIRARGVEIEAKAALSASVNVVGSYTYTDAEYTTDTTYKGNTPAQVPKHMASLWADYTFFDGPLSGLTLGTGGRYTGSSYGDPANSFKVGSYTVVDALVRYDLARVGMAGSNVALHVNNLFDREYVASCFNTYGCFWGAERQVVATATFRF | soluble |
| INDWSYSIGANFSYVTTKIMDLKGGDTPGQSVGDPLWAYYGYVCDGIFQNEEEIKNHPTQSMGTPVPGDLKYRDLNGDKVVDSKDRQVLGSYFPKINFGLNLSVQYKDFDLSALLQGAADVKSAPVAEIRYAFYNGGKVTEQHLDRWTPENPNATYPRLSMSDSKNRVTSSFWMQDASYAKLRNLQVGYSLPKQLISKYGISRLRVYCSIDNLFMISGFDGVDPEAISGNYYPLTRNYSFGLNVTF | not soluble |
| MTLQEQIMKALHVQPVIDPKAEIRKRVDFLKDYVKKTGAKGFVLGISGGQDSTLAGRLAQLAVEEIRNEGGNATFIAVRLPYKVQKDEDDAQLALQFIQADQSVAFDIASTVDAFSNQYENLLDESLTDFNKGNVKARIRMVTQYAIGGQKGLLVIGTDHAAEAVTGFFTKFGDGGADLLPLTGLTKRQGRALLQELGADERLYLKMPTADLLDEKPGQADETELGITYDQLDDYLEGKTVPADVAEKIEKRYTVSEHKRQVPASMFDDWWKLAAALEHHHHHH | soluble |
| AFTFLHTADLHLDAPLRAVALRDPELAAEIGVASRTAFSRIVDLCLAEAVAFLVIAGDLWDGTYSSTKTPRFLKQELLRLEAAGIGCYILRGNHDALARQTGELEAPANTTVFGARPSTVELSIDGQPVALHGLSFREPHAPESLLPRYPAPKPGAFNLGLMHTSLNGSPGHDPYAPCSLAELEAHGYDYWALGHIHRRFVHRGRATVVMPGTPQGRDIGEAGAASVTLVQVGDDGAVTLEERSVA | not soluble |
| EISGFGQCLVWVQCSFPNCGKWRRLCGNIDPSVLPDNWSCDQNTDVQYNRCDIPEETWTGLE | soluble |
| LDGIAELTGARVEDLAGMDVFQGCPAEGLVSLAASVQPLRAAAGQVLLRQGEPAVSFLLISSGSAEVSHVGDDGVAIIARALPGMIVGEIALLRDSPRSATVTTIEPLTGWTGGRGAFATMVHIPGVGERLLRTARQRLAAFVSPIPVRLADGTQLMLRPVLPGDRERTVHGHIQFSGETLYRRFMSARVPSPALMHYLSEVDYVDHFVWVVTDGSDPVADARFVRDETDPTVAEIAFTVADAYQGRGIGSFLIGALSVAARVDGVERFAARMLSDNVPMRTIMDRYGAVWQREDVGVITTMIDVPGPGELSLGREMVDQINRVARQVIEAVG | not soluble |
| MKINLDRTSSGFCIGVQGTIHVAEEKLAQSGELYCLGDVVHNEVEVKRLEALGMETIDIPAFEELRNAEVLIRAHGEPPSTYETARKNNLAITDTTCPVVAKLQRTAKMLHQLGYQVVIYGKKVHPEVIGINGQCDDEGVVIKHPDLSDPEEIAPLDLSRKTALISQTTMDVPGFYELKRNLEKLFAEHGHRNPGTQSGEWMAVRDIDITAEKTGALAMPKLVFKDTICRQVSSRNGKLRDFALANDCIVFAAGRKSSNGQVLYSICKDANPHSYFIEDVDEIRPEWFVGENGKPVESVGICGATSTPMWLLEKVANYIDKTFGDGSSNPNALEHHHHHH | not soluble |
| MGSDKIHHHHHHMLGKGVVDYTREGSILSAEQRRFYEKNGYLLIRNCVPQYELNRFRQRFQDICEKKVKAPENMTVMKDISIAKSEFKDGEKAITKIQDFADDPVLFEYCKYPGVVDVVKDLIGNPKSNLMAMHTMLINKPPDNGKLTSRHPMHQDLQYFPFRPADFICCAWTAMEKITRANGCLVVVPGTHKGVLLPHEYPKWEGGVNKAYHGIQDYDTSTPRIHVEMEPGDTVFFHPILIHGSGANRTEGFRKAISCHYANDDLCRYVNVEGTTQETLAEEIIEIAKKRLTRYGLDPNTVTLDFADIWRVRAREVNGRRSNL | not soluble |
| MSLSLFQAILTSMEPREGGEKVFPSDLMIARKTKTGIIYPVFLSDDNIDYARAVISVFTLNTGKKKEVIENNLKEIELKFQNAKIIRALSLIMMRKSIFVPPVNIDAQALREYIFSMARIPPINSNEREMILKSAAESFNIDYIDIENAIYADKDSESILERPYNTDEGKLIREYNLEQLETVLLKCTELNISNASDWHFVITMIRRLGLLYEIKNDGDKIISVNITGPMALFENTERYGSKFSMLIRSIYKMNEWSLTASIKVKDFSGDKNIYTLKLSDSAKFFLPPGTIKPEHLPEHVSRGYPIIINNKFYFPDYIIDLDERIYVSINSDEKPDNLNWINVYILSDRDKKKPGSIAFYNDMDWDELFNLISKKRNLSSEIDNYSIDEIKKKLDQIYPDSQGMIDYLESQGLIPLRVLPELGYKIKWKNLDIIIEKAEGHHHHHH | not soluble |
